The experiment has as its target T1, HLA-B57(A46E/V97R).β2m IgG4 Fc fusion protein dimer associated with β2m (human; homo sapiens).
T1 construct: also called iosH2; losH2
As to the kind of experiment: ELISA, biotinylated LILRB2 on streptavidin plate. From the text: The inventors went on to dissect the immunological properties most relevant to tumor immunity associated with HLA-B57^{(A46E/V97R)} formats, all lacking association with a peptide epitope associated with the peptide-binding groove of the HLA class I domain of the fusion protein. The affinity of interaction of LILRB2 with wildtype HLA-B57 fusion protein (dimers) lacking β2m, HLA-B57^{(A46E/V97R)} fusion protein (dimers) lacking β2m, and HLA-B57^{(A46E/V97R)} fusion protein dimers still bound to β2m was measured using the enzyme-linked immunosorbent assay (ELISA) method. Flat bottom Pierce™ Streptavidin coated high binding capacity 96 well plates (Pierce #15500) were coated with 50 μl of c-terminally biotinylated antigen molecules (LILRB2, BPS Bioscience #100335) immobilized at a final concentration of 5 μg/ml in PBS buffer. PBS and IgG isotype were used as negative controls. A serial dilution of HLA-B57, or HLA-B57^{(A46E/V97R)} lacking β2m, and HLA-B57^{(A46E/V97R)}.β2m (eight concentration points: 10, 2.5, 1, 0.25, 0.1, 0.025, 0.01, 0.0025 μg/ml) was applied (50 μl) in duplicates. An APC conjugated goat anti-human IgG antibody (Jackson Immuno Research #109-135-098) with 1:100 dilution in TBS (50 μl) was used for detection. Finally, 50 μl TBS in each well was added and a fluorescence scan was performed with APC excitation and emission wavelengths of 650 nm & 660 nm, respectively. […]
For orientation: ELISA stands for enzyme-linked immunosorbent assay.

B1: LILRB2, c-terminally biotinylated (BPS Bioscience #100335) (receptor, UniProt Q8N423 22-458, looked up)
chain: QTGTIPKPTLWAEPDSVITQGSPVTLSCQGSLEAQEYRLYREKKSASWITRIRPELVKNGQFHIPSITWEHTGRYGCQYYSRARWSELSDPLVLVMTGAYPKPTLSAQPSPVVTSGGRVTLQCESQVAFGGFILCKEGEDEHPQCLNSQPHARGSSRAIFSVGPVSPNRRWSHRCYGYDLNSPYVWSSPSDLLELLVPGVSKKPSLSVQPGPVMAPGESLTLQCVSDVGYDRFVLYKEGERDLRQLPGRQPQAGLSQANFTLGPVSRSYGGQYRCYGAHNLSSECSAPSDPLDILITGQIRGTPFISVQPGPTVASGENVTLLCQSWRQFHTFLLTKAGAADAPLRLRSIHEYPKYQAEFPMSPVTSAHAGTYRCYGSLNSDPYLLSHPSEPLELVVSGPSMGSSPPPTGPISTPGPEDQPLTPTGSDPQSGLGRHL
modifications: C-terminal biotin
notes: Bought reagent immobilised on streptavidin plates
B1: the binding result was “binds”.

These data come from US20250163129A1 (IMMUNOS THERAPEUTICS, published 2025).
